# Test results from the Immune Epitope Database (IEDB).
# Tests used:
# [1] = target: HLA-A*02:01; assay: IEDB peptide-MHC binding, purified MHC/direct/fluorescence; filed as Kd, often an IC50 or EC50 that approximates it; ≥ and ≤ were set here for values at or beyond the usual limits of such assays
# [2] = target: HLA-A*03:01; assay: as above
# [3] = target: HLA-A*11:01; assay: as above
# [4] = target: HLA-A*24:02; assay: as above
# [5] = target: HLA-A*26:01; assay: as above
# [6] = target: HLA-A*31:01; assay: as above
# [7] = target: HLA-A*69:01; assay: as above
# [8] = target: HLA-B*07:02; assay: as above
# [9] = target: HLA-B*08:01; assay: as above
# [10] = target: HLA-B*08:02; assay: as above
# [11] = target: HLA-B*15:01; assay: as above
# [12] = target: HLA-B*27:05; assay: as above
# [13] = target: HLA-B*40:01; assay: as above
# [14] = target: HLA-B*58:01; assay: as above
# [15] = target: HLA-A*01:01; assay: as above
# [16] = target: HLA-B*18:01; assay: as above
# [17] = target: HLA-B*44:02; assay: as above
# [18] = target: HLA-B*46:01; assay: as above
# [19] = target: HLA-B*15:09; assay: as above
# [20] = target: HLA-A*01:01; assay: IEDB peptide-MHC binding, purified MHC/competitive/radioactivity; filed as Kd, often an IC50 or EC50 that approximates it; ≥ and ≤ were set here for values at or beyond the usual limits of such assays; settings: source organism: Hepacivirus hominis
# [21] = target: HLA-A*02:01; assay: as above; settings: source organism: Hepacivirus hominis
# [22] = target: HLA-A*02:02; assay: as above; settings: source organism: Hepacivirus hominis
# [23] = target: HLA-A*02:03; assay: as above; settings: source organism: Hepacivirus hominis
# [24] = target: HLA-A*02:06; assay: as above; settings: source organism: Hepacivirus hominis
# [25] = target: HLA-A*03:01; assay: as above; settings: source organism: Hepacivirus hominis
# [26] = target: HLA-A*11:01; assay: as above; settings: source organism: Hepacivirus hominis
# [27] = target: HLA-A*31:01; assay: as above; settings: source organism: Hepacivirus hominis
# [28] = target: HLA-A*33:01; assay: as above; settings: source organism: Hepacivirus hominis
# [29] = target: HLA-A*68:01; assay: as above; settings: source organism: Hepacivirus hominis
# [30] = target: HLA-A*68:02; assay: as above; settings: source organism: Hepacivirus hominis
# [31] = target: HLA-B*07:02; assay: as above; settings: source organism: Hepacivirus hominis
# [32] = target: HLA-B*08:01; assay: as above; settings: source organism: Hepacivirus hominis
# [33] = target: HLA-B*18:01; assay: as above; settings: source organism: Hepacivirus hominis
# [34] = target: HLA-B*35:01; assay: as above; settings: source organism: Hepacivirus hominis
# [35] = target: HLA-B*40:01; assay: as above; settings: source organism: Hepacivirus hominis
# [36] = target: HLA-B*40:02; assay: as above; settings: source organism: Hepacivirus hominis
# [37] = target: HLA-B*44:02; assay: as above; settings: source organism: Hepacivirus hominis
# [38] = target: HLA-B*44:03; assay: as above; settings: source organism: Hepacivirus hominis
# [39] = target: HLA-B*51:01; assay: as above; settings: source organism: Hepacivirus hominis
# [40] = target: HLA-B*53:01; assay: as above; settings: source organism: Hepacivirus hominis
# [41] = target: HLA-B*54:01; assay: as above; settings: source organism: Hepacivirus hominis
# [42] = target: HLA-A*24:03; assay: IEDB peptide-MHC binding, purified MHC/direct/fluorescence; filed as Kd, often an IC50 or EC50 that approximates it; ≥ and ≤ were set here for values at or beyond the usual limits of such assays; settings: source organism: Influenza A virus (A/camel/Mongolia/1982(H1N1))
# [43] = source organism: Influenza A virus (A/chicken/Hunan/fg/2004(H5N1))
# [44] = source organism: Influenza B virus (B/Chiba/447/98)
# [45] = source organism: Influenza A virus (A/Puerto Rico/8/34/Mount Sinai(H1N1))
# [46] = source organism: Giardia lamblia ATCC 50803
# [47] = source organism: Vibrio parahaemolyticus
# [48] = source organism: Vibrio vulnificus CMCP6
# [49] = source organism: Influenza A virus (A/camel/Mongolia/1982(H1N1))
# [50] = source organism: Influenza A virus H3N2
sequence,measurement,setting,value
YSHGTGTGY,Kd,[1]; [43],≥ 20 µM
same,Kd,[2]; [43],≥ 20 µM
same,Kd,[3]; [43],≥ 20 µM
same,Kd,[4]; [43],≥ 20 µM
same,Kd,[5]; [44],0.02 µM
same,Kd,[6]; [43],≥ 20 µM
same,Kd,[7]; [43],≥ 20 µM
same,Kd,[8]; [43],≥ 20 µM
same,Kd,[9]; [43],≥ 20 µM
same,Kd,[10]; [44],≥ 20 µM
same,Kd,[11]; [45],0.099 µM
same,Kd,[12]; [43],≥ 20 µM
same,Kd,[13]; [43],≥ 20 µM
same,Kd,[14]; [43],0.905 µM
IVKYKQYLK,Kd,[15]; [46],≥ 20 µM
same,Kd,[1]; [46],≥ 20 µM
same,Kd,[2]; [46],0.0815 µM
same,Kd,[4]; [46],≥ 20 µM
same,Kd,[7]; [46],≥ 20 µM
same,Kd,[8]; [46],≥ 20 µM
same,Kd,[9]; [46],≥ 20 µM
same,Kd,[10]; [46],≥ 20 µM
same,Kd,[11]; [46],≥ 20 µM
same,Kd,[16]; [46],≥ 20 µM
same,Kd,[12]; [46],≥ 20 µM
same,Kd,[13]; [46],≥ 20 µM
same,Kd,[17]; [46],≥ 20 µM
same,Kd,[18]; [46],≥ 20 µM
same,Kd,[14]; [46],≥ 20 µM
ASEELMDKY,Kd,[15]; [47],0.0272 µM
same,Kd,[1]; [47],≥ 20 µM
same,Kd,[2]; [47],≥ 20 µM
same,Kd,[4]; [47],≥ 20 µM
same,Kd,[5]; [48],≥ 20 µM
same,Kd,[6]; [47],≥ 20 µM
same,Kd,[7]; [47],≥ 20 µM
same,Kd,[8]; [47],≥ 20 µM
same,Kd,[10]; [48],≥ 20 µM
same,Kd,[11]; [47],≥ 20 µM
same,Kd,[19]; [48],≥ 20 µM
same,Kd,[12]; [47],≥ 20 µM
same,Kd,[13]; [47],≥ 20 µM
same,Kd,[17]; [47],≥ 20 µM
same,Kd,[18]; [47],≥ 20 µM
same,Kd,[14]; [47],≥ 20 µM
SVFHEHIFK,Kd,[15]; [46],≥ 20 µM
same,Kd,[1]; [46],≥ 20 µM
same,Kd,[2]; [46],0.154 µM
same,Kd,[3]; [46],0.0092 µM
same,Kd,[4]; [46],≥ 20 µM
same,Kd,[5]; [46],≥ 20 µM
same,Kd,[6]; [46],0.134 µM
same,Kd,[7]; [46],≥ 20 µM
same,Kd,[8]; [46],≥ 20 µM
same,Kd,[11]; [46],≥ 20 µM
same,Kd,[12]; [46],≥ 20 µM
same,Kd,[13]; [46],≥ 20 µM
same,Kd,[17]; [46],≥ 20 µM
same,Kd,[14]; [46],≥ 20 µM
EKFFPSSSY,Kd,[15]; [49],≥ 20 µM
same,Kd,[1]; [49],≥ 20 µM
same,Kd,[2]; [49],≥ 20 µM
same,Kd,[3]; [49],≥ 20 µM
same,Kd,[4]; [49],≥ 20 µM
same,Kd,[6]; [49],≥ 20 µM
same,Kd,[7]; [49],≥ 20 µM
same,Kd,[8]; [49],≥ 20 µM
same,Kd,[9]; [49],≥ 20 µM
same,Kd,[10]; [50],≥ 20 µM
same,Kd,[11]; [45],1.12 µM
same,Kd,[12]; [49],≥ 20 µM
same,Kd,[14]; [49],≥ 20 µM
RPALVFDITK,Kd,[20],≥ 51.3 µM
same,Kd,[21],≥ 37.4 µM
same,Kd,[22],≥ 70 µM
same,Kd,[23],≥ 70.4 µM
same,Kd,[24],12.3 µM
same,Kd,[25],≥ 29.7 µM
same,Kd,[26],0.796 µM
same,Kd,[27],≥ 70 µM
same,Kd,[28],≥ 70 µM
same,Kd,[29],0.133 µM
same,Kd,[30],≥ 69.8 µM
same,Kd,[31],0.222 µM
same,Kd,[32],≥ 49.8 µM
same,Kd,[33],≥ 70.5 µM
same,Kd,[34],≥ 27.4 µM
same,Kd,[35],≥ 69.6 µM
same,Kd,[36],≥ 70.8 µM
same,Kd,[37],≥ 70.2 µM
same,Kd,[38],15.6 µM
same,Kd,[39],≥ 69.6 µM
same,Kd,[40],18.9 µM
same,Kd,[41],11.2 µM
KFFPSSSYR,Kd,[15]; [49],≥ 20 µM
same,Kd,[1]; [49],≥ 20 µM
same,Kd,[2]; [45],0.184 µM
same,Kd,[4]; [49],≥ 20 µM
same,Kd,[42],≥ 20 µM
same,Kd,[7]; [49],≥ 20 µM
same,Kd,[8]; [49],≥ 20 µM
same,Kd,[9]; [49],≥ 20 µM
same,Kd,[11]; [49],≥ 20 µM
same,Kd,[19]; [50],≥ 20 µM
same,Kd,[16]; [49],≥ 20 µM
same,Kd,[12]; [49],≥ 20 µM
same,Kd,[13]; [49],≥ 20 µM
same,Kd,[17]; [49],≥ 20 µM
same,Kd,[18]; [49],≥ 20 µM
same,Kd,[14]; [49],≥ 20 µM
